# Data reported in the DeepSol protein solubility set.
# Assay: soluble on expression in E. coli; label from the status in PepcDB or PDB records
row,Sequence,soluble on expression in E. coli
1,MARFIARTKLNIDDIKEVDEYKALIPENNQYEELKKAIKEQGFLFPVIVNQNRELIDGYTRLRIARELGLTEIPAEVYETGGREEELDIIASLNLKRRHLTKDELVLLIDKIHEMKKRLKKDNIEEQNSGTGARISAIDKENISKNSVTEESREIREELKKLVPDVQINEDTIRKYLQIKKEVPWLVQYIGDEKKNKIGIRKAYEIYTLLSKKNLLDLDKRIPKTELTKLITDKEGRKILERDDLLQLILDHKMAVSQAINKLKTEEKIKQSKKKSRVKTEDEYAETDEEEEDETEEGQRELDENEEYPLLEEWQKAKEEEKQEAEQQLTPQLNVSPNSNTTQVTLEFSNVLKELSNKGFTKLDFNTDVVIAKINDKYYAILLEALKSLERGSKQYKELAEFLVSNNLAVYDPEEDNYIISWRSLNCS,soluble
2,MARFNAAFTRIKIMFSRIRGLISCQSNTQTIAPTLSPPSSGHVSFAGIDYPLLPLNHQTPLVFQWFERNPDRFGQNEIPIINTQKNPYLNNIINAAIIEKERIIGIFVDGDFSKGQRKALGKLEQNYRNIKVIYNSDLNYSMYDKKLTTIYLENITKLEAQSASERDEVLLNGVKKSLEDVLKNNPEETLISSHNKDKGHLWFDFYRNLFLLKGSDAFLEAGKPGCHHLQPGGGCIYLDADMLLTDKLGTLYLPDGIAIHVSRKDNHVSLENGIIAVNRSEHPALIKGLEIMHSKPYGDPYNDWLSKGLRHYFDGSHIQDYDAFCDFIEFKHENIIMNTSSLTASSWR,not soluble
3,MARLSGILADSDIQALIDNNFLKALWPFDAAQIQPASLDLRLGEKAYRIRASFMPGADVRVLDKLERLKLHEFDLRDGAVLETGCVYIVPLLENLALPEILSAIANPKSSTGRLDIFTRVITDNAQEFDKICVGYHGPLYLEISPRTFPILVRTGSRLFQLRFRKGHSYLNEIELHALHRDETLISDDLPNISAGGIGLSINLKGDENGLVGYRGKRHTSVIDIDKHAVANILDFWEPLFDRGQRELILDPDEFYILVSRESVHVPPLYAAEMTPFDPLVGEFRVHYAGFFDPGFGHMEAGGKGARAVLEVRSHEVPFILEHGQIIGRLVYEQMLKRPLALYGEDSGSHYQAQGLKLSKHFR,not soluble
4,MARSFKVLSPTAILGYGFPEESFRKAMAESPDLIAVDAGSSDPGPHYLGAGKPFTDRAGVKRDLRYMITAGVQNNIPVVIGTAGGSGAAPHLEWCREIIHEIAREEHLSFSMALIPADVDKAIVHQALDNGKITALDFVPPLTHDAIDESTYIVAQMGIEPFQRALKERAQVVLGGRAYDPACFAALPIMQGFDEGLALHCGKILECAAIAATPGSGSDCAMGIIDDNGFTLKTFNPKRKFTETSAAAHTLYEKSDPYFLPGPGGVLNLKGCTFKAVNDGEVYVSGSKHEETPYALKLEGARRVGFRCLTIAGTRDPIMIAGIDKIIDEVKTSVSRNLSLDDDSIRINFHLYGKNGVMGDHEPMQTAGHELGIVLDVVAPTQEIANSVCSLVRSTMLHYGYENRIATAGNLAFPFSPSDIQGGPVYEFSIYHLIEANDALRFDFHIEQVTPEGVQA,soluble
5,MARTEIWLRLMYVGDLYGEAMLNMANSLIRQPQINRTHLQEAGLTARQAERFLQLPAGVLDETLRWLELPQHHFLCADSEIYPPQLRAIDDYPGAIFIDGDPACLHTCQLAVVGSRSHSWYGERWGRLLCESLAKSGLTITSGLARGIDGVAHNAAVSMGGKSVAVLGNGLAKIYPRRHAMLAENLIATGGAVVSEFPLSTPPLPQHFPRRNRIISGLSKGVLVIEAALRSGSLVTARCALEQGRDVFALPGPIGSPGSEGTHWLIKQGATLVTTPEDILENLQYGLHWLPTTAENSLYSLNQDEAALPFPELLANVGDEVTPVDVVAERAGQPVPAVVAQLLELELAGWIAAVPGGYVRLRRASHVRRTNVFV,not soluble
6,MARTVFCEYLKKEAEGLDFQLYPGELGKRIFDSVSKQAWGEWIKKQTMLVNEKKLNMMNAEHRKLLEQEMVNFLFEGKDVHIEGYVPPSN,not soluble
7,MARVYVSTVVNARNDRVWARVRDFNGLPNWHPAIAESRIEGGEPSDKIGCVRDFRLRNGDRIREKLLGLSDYDMFCTYSILESPMGVENYVATLRLTPVTDGDQTFMEWTAEFDCAPERETELVNNIGGGVFQGGFDALKRVFGGLEHHHHHH,soluble
8,MASDRKRQIIEAAAQSFAAFGYKATTMEQIAKLANVGKGTIYTFFKSKEELLDEIVSGLIMEIKAEAELAMDSSLPFSENVHRALYRILEFRQRHQLTAKLLQEVRNIGTVAVQEVLAKLDRAMVEFIRQKIDAAVEKGEIRPCNSEITAFLMLKTYIALIVDWEKDHEPLTKEQIAELFTLYFLQGLSR,not soluble
9,MASDTPGFYMDKLNKYRQMHGVAITYKELSTSGPPHDRRFTFQVLIDEKEFPEAKGRSKQEARNAAAKLAVDILDNENKVDCHT,soluble
10,MASEDKFESVLSTRYCKNSPLVSILSETNKATLWRQLWIWLAEAEKELGLKQVTQDAIDEMKSNRDVFDWPFIRSEERKLKHDVMAHNHAFGKLCPTAAGIIHLGATSCFVQDNADLIAYRDSIDHILKRFATVIDRLAAFSLKNKEVVTVGRTHYQTASLVTVGKRGVLWAQELLMAFQSLSEFRDKMRFRGIKGATGTQDSFLTLFAGDESKVEALDELVTKKANFSNRFLITGQTYSRQQDSQLVFSLSLLGAAAKKVCTDIRVLQAFGELLEPFEKDQIGSSAMPYKKNPMKSERCCALSRKLINAPQEALTILADQGLERTLDDSAGRRMLIPDVLLTAEALLTTLQNIFEGLSVQTDNVKKIVEDEIAFLGLEKAMMMLTEEGVDRQQAHAVIRKTALEAKQLQATQKVDIRQTMADPFFDSVRDRVVGLVNNPINFTGRCVSQTESFIAKELKPTIDKYLDKSAGNVQLDV,soluble
11,MASFPFLMTPETMNKLVTPNSASISSSSSSPSTSTSFSIDTLLSNPLAGIPQLHNFQDPFGAVGAAAAASALPWQFHPANYPFFSMLCGPLMPPFMAPYHHQHYASRRKRRHRTIFSEEQLNILETTFSTTHYPDATTREELAVQCSLKEERVEVWFKNRRAKERKQKKDDSRTSKHSGDDSECDESDEDTRKVKRIKRENSSGKETSSPESKASLKTSHSENLVLEPC,not soluble
12,MASGKATSLYSHAEIFLPSKQESGIKKKSGEETQQTKGATIESSRINQNRAERTQRFQTQCSKRKPYEIRQGIPERSSSKQDPGNKTASIEHRGRENPSETHES,not soluble
13,MASIAIEYHSVVLGMERKVNVIYPDQSEIPKKDQGDKDIPVLYLLHGMGGNENSWQKRTAIERLLRHTNLIVVMPSTDLGWYTDTAYGLNYYRALSQELPQVLAAFFPNMTQKREKTFVAGLSMGGYGAFKWALKSNRFSYAASFSGALDFSPETLLEGKLGELAYWQGVFGQFDDPDLDKHYLKNMVAESDGKTKFYAWCGYEDFLFATNEKAIADFQAQGLDIDYHKGHGKHEWYYWNQQLEVLLEWLPINYQKEERLS,not soluble
14,MASIKLYFDKRVNRKDGKFPLKINVTHKRQQALINLGVLLSPDQWDSTKGKVINGPNKSFLNGYISQRVHCAETELLNLRIAGKLDLMTGKQFKEHLQRILLRGKLEEKQEETGCSFVQYYTRFVEGKKNPQTKAVYQYTLDRICRFVDVPDKFRFEDVTYAWLKSFEIHLSETSKVNSISIHMRNIRAVFNDALNTETISCYPFRRFKIKQEATAKRALTPEELVTLRDYPCEEHQKQYVDIFMLIFYLVGINTVDLCRLEKIRNGRIEYRRAKTKKIYNIKVEPEAAEIIERYKGSKYLLNILERYKNYKDYAHRLNENLQEIGSVELVEKVINGKRRRVKKRFPLFPELTVYWARHTWATIAHKIGVSKDVISLALGHEFGCKTTSIYIDYDMEKVDKANRQVLDYLENLK,not soluble
15,MASISSLGVGSNLPLDQLLTDLTKNEKGRLTPITKQQSANSAKLTAYGTLKSALEKFQTANTALNKADLFKSTVASSTTEDLKVSTTAGAAAGTYKINVTQLAAAQSLATKTTFATTKEQLGDTSVTSRTIKIEQPGRKEPLEIKLDKGDTSMEAIRDAINDADSGIAASIVKVKENEFQLVLTANSGTDNTMKITVEGDTKLNDLLAYDSTTNTGNMQELVKAENAKLNVNGIDIERQSNTVTDAPQGITLTLTKKVTDATVTVTKDDTKAKEAIKSWVDAYNSLVDTFSSLTKYTAVEPGEEASDKNGALLGDSVVRTIQTGIRAQFANSGSNSAFKTMAEIGITQDGTSGKLKIDDDKLTKVLKDNTAAARELLVGDGKETGITTKIATEVKSYLADDGIIDNAQDNVNATLKSLTKQYLSVSNSIDETVARYKAQFTQLDTMMSKLNNTSSYLTQQFTAMNKS,not soluble
16,MASISTPFPISLHPKTVRSKPLKFRVLTRPIKASGSETPDLTVATRTGSKDLPIRNIPGNYGLPIVGPIKDRWDYFYDQGAEEFFKSRIRKYNSTVYRVNMPPGAFIAENPQVVALLDGKSFPVLFDVDKVEKKDLFTGTYMPSTELTGGYRILSYLDPSEPKHEKLKNLLFFLLKSSRNRIFPEFQATYSELFDSLEKELSLKGKADFGGSSDGTAFNFLARAFYGTNPADTKLKADAPGLITKWVLFNLHPLLSIGLPRVIEEPLIHTFSLPPALVKSDYQRLYEFFLESAGEILVEADKLGISREEATHNLLFATCFNTWGGMKILFPNMVKRIGRAGHQVHNRLAEEIRSVIKSNGGELTMGAIEKMELTKSVVYECLRFEPPVTAQYGRAKKDLVIESHDAAFKVKAGEMLYGYQPLATRDPKIFDRADEFVPERFVGEEGEKLLRHVLWSNGPETETPTVGNKQCAGKDFVVLVARLFVIEIFRRYDSFDIEVGTSPLGSSVNFSSLRKASF,soluble
17,MASKDAQVTLSRGEQSVKRIKEFNPKKDNFSILLMGIDARPGQSMDKERSDAMVLATFNRKDKSVKLLSIPRDSYVNIPGRGYDKITHAHSLGGRDLSTETVENLLDIPVDYVMEANFSAFKEVVDELGGVPITIKEDYIVRQIKKDTKGKVNLQTGEQTLGGEEALAYVRTRKADTDLKRGERQMEVIKSIINKSKSLTSIPAYDDILDTVGKNVSMNLSLNDAIGLIPFMTSIQTVDTLQLKGSDYQPGKVYYFQLDQENLNEIKQELKQQLDVLEHHHHHH,soluble
18,MASLNCHDKCSTTTQSDINLKDELLSSTSIECRPGNDLLESLHKEQNRWYSETKTFSDSSQHTGRGFEKYWFCYGIKCYYFVMDRKTWSGCKQTCQISSLSLLKIDNEDELKFLKLLVPSDSYWIGLSYDNKKKDWAWINNGPSKLALNTMKYNIRDGGCMLLSKTRLDNDNCDKSFICICGKRLDKFPH,soluble
19,MASMTGGQQMGRGSSTSLYKKAGLMPSPMEDIEEILITEEQLKAKVKELGEMITRDYEGKDLVLIGVLKGAIMFMSGLSRAIDLPLSIDFLAVSSYGSSTKSSGIVKIIKDHDIDIEGKDVLIVEDIIDSGLTLAYLRETLLGRKPRSLKICTILDKPERREADVKVDYCGFKIPDKFVVGYGLDYAEKYRNLPFIGVLKPELYK,soluble
20,MASMTGGQQMGRIPGNSPRMVLLESEQFLTELTRLFQKCRSSGSVFITLKKYDGRTKPIPRKSSVEGLEPAENKCLLRATDGKRKISTVVSSKEVNKFQMAYSNLLRANMDGLKKRDKKNKSKKSKPAQGGEQKLISEEDDSAGSPMPQFQTWEEFSRAAEKLYLADPMKVRVVLKYRHVDGNLCIKVTDDLVCLVYRTDQAQDVKKIEKFHSQLMRLMVAKESRNVTMETE,soluble
21,MASPDEDNPGILYNGRFDFSDPNGPKCAWSGSNVELNFYGTEASVTIKSGGENWFQAIVDGNPLPPFSVNATTSTVKLVSGLAEGAHHLVLWKRTEASLGEVQFLGFDFGSGKLLAAPKPLERKIEFIGDSITCAYGNEGTSKEQSFTPKNENSYMSYAAITARNLNASANMIAWSGIGLTMNYGGAPGPLIMDRYPYTLPYSGVRWDFSKYVPQVVVINLGTNDFSTSFADKTKFVTAYKNLISEVRRNYPDAHIFCCVGPMLWGTGLDLCRSYVTEVVNDCNRSGDLKVYFVEFPQQDGSTGYGEDWHPSIATHQLMAERLTAEIKNKLGWLEHHHHHH,soluble
